Assay results published in US20130071366A1 (CANCER RESEARCH TECHNOLOGY, published 2013).
Residue numbers refer to the chain shown, from its start. Names may count otherwise. Read-outs that look alike come from different tables or passages of the source. Values belong to the binder of their own block, whether it stands above or below them.

Tests used:
[1] = target: T1, Insulin-like Growth Factor II (IGF-II), recombinant human (human, UniProt P01344 25-91, biotinyl group (site not stated) when immobilised for SPR; not biotinylated as SPR analyte or in ITC); assay: SPR, biotinyl-IGF-II immobilised
T1 construct: mature; Bought as Biotinyl-IGF-II from GroPep for immobilisation on streptavidin chips; also called IGF2; Biotinyl-IGF-II
Description: (§1) The affinity of versions of Fc-tagged domain 11 fusion proteins, and domain 11 constructs, for IGF-II were compared using surface plasmon resonance (BIAcore 3000). Attempts were made to immobilize Fc-tagged domain 11 proteins upon a sensor chip surface (CM5 and CM5-proteinA) but we encountered similar problems as described above with immobilised monomeric domain 11. Instead, immobilisation of biotinylated IGF-I and IGF-II on separate flow cells of a streptavidin coated sensor chip (BIAcore) generated reproducible sensorgram profiles when Fc-tagged and untagged domain 11 proteins were passed over the surface as analytes. The Fc-tagged domain 11 kinetic data performed in triplicate generated sensorgrams that were analyzed using a bivalent analyte model. […] Both Fc-tagged proteins appeared to have reduced off-rates compared to the untagged monomers.

[2] = target: T1, Insulin-like Growth Factor II (IGF-II), …; assay: SPR, biotinyl-IGF-II immobilised, bivalent analyte model
Description: as §1

[3] = target: T1, Insulin-like Growth Factor II (IGF-II), …; assay: SPR, steady-state KD relative to wild type domain 11
[4] = target: T1, Insulin-like Growth Factor II (IGF-II), …; assay: as above; remark: listed apart in the source
Procedure: (§2) Kinetic analysis by Surface Plasmon Resonance (SPR) was conducted on a BIAcore 3000 biosensor (BIAcore, Uppsala, Sweden) at 25° C. in HBS-EP (10 mM HEPES, pH 7.4, 150 mM NaCl, 3 mM EDTA, 0.005% surfactant P20) at a flow rate of 40 μl/min. […] Kinetic experiments consisted of a two minute injection of analyte followed by a 100s dissociation phase in running buffer, after which the binding surface was regenerated with a 2 minute injection of 2 M MgCl₂. A blank flow cell was used for in-line reference subtraction of changes due to differences in refractive index of running buffer versus sample and a buffer-only injection was used to subtract instrument noise and drift. Injections were performed in duplicate for each concentration and in a randomised order. Kinetic parameters were determined by global fitting of sensorgrams to a two-state (conformational change) binding model using BIAevaluation software version 4.0.1. In all cases the minor component made an insignificant contribution to the overall affinity and as such only the kinetic parameters of the major binding component were used. For each interaction the dissociation affinity constant (KD) was also calculated by fitting of the response of each concentration at equilibrium to a steady-state affinity model using BIAevaluation.

[5] = target: T1, Insulin-like Growth Factor II (IGF-II), …; assay: as above; remark: listed apart in the source
Procedure: […]. Values are the mean±S.E.M. of three separate experiments.
as §2, with “BIAevaluation. In order to investigate the influence of ionic strength, kinetic experiments were conducted in HBS-EP running buffers containing the desired NaCl concentration. In each case, analyte samples were made up in the appropriate running buffer prior to injection.” for “BIAevaluation.”
Following purification, the binding of each mutant construct to IGF2 was assessed by SPR and compared to the wild type domain 11.

[6] = target: T1, Insulin-like Growth Factor II (IGF-II), …; assay: ITC
Procedure: Calorimetric measurements were performed using a VP-ITC microcalorimeter (MicroCal). All solutions were thoroughly degassed before use by stirring under vacuum. […] The sample cell contained either wild type domain 11 (7 uM) or the E1544A mutant (8 μM), also in HBS-E buffer. To correct for the heat effects of dilution and mixing, reaction heats obtained from a control experiment, in which IGF2 was injected into HBS-E, were subtracted. calorimetric data were analysed using MicroCal ORIGIN software (version 5.0) supplied with the instrument. Thermodynamic parameters were derived by fitting the binding isotherms to a single-site binding model. Values for dissociation affinity constants (KD) were determined from duplicate experiments.
In order to validate the SPR sensorgram data, ITC was used to assess the binding affinity between domain 11 and IGF-II. The affinity of the E1544A mutant was also assessed by ITC in order to confirm whether use of a second technique agreed as to the apparent increase in affinity (FIG. 6 and Table 6). Titrations were performed using […] injections of 40 μM IGF-II (after an initial 7.5 μl injection) into the reaction cell containing wild type domain 11 or the E1544A mutant. […] The two fold differences may be simply accounted for by the fidelity of both techniques.

[7] = target: T1, Insulin-like Growth Factor II (IGF-II), …; assay: SPR, biotinylated IGF-II on a streptavidin chip, domain 11 protein injected as analyte at 16384 to 32 nM
Procedure: The polymorphism G1619R (l) has an apparent wild type interaction and the E1544A (d) mutation has a modest positive affect on IGF-II binding.
as §2, with “In all cases the minor component made an insignificant contribution to the overall affinity and as such only the kinetic parameters of the major binding component were used.” left out, “BIAevaluation. […]” for “BIAevaluation.”
Following purification, the binding of each mutant construct to IGF2 was assessed by SPR and compared to the wild type domain 11. […]

T1 sequence (P01344 25-91): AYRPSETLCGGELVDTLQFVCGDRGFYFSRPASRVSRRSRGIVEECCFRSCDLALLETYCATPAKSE

B1: Fc-tagged enhanced mutant IGF2R domain 11 (11^E1544K-Fc) (Fc fusion)
chain: NEHDDCQVTNPSTGHLFDLSSLSGRAGFTAAYSKKGLVYMSICGENENCPPGVGACFGQTRISVGKANKRLRYVDQVLQLVYKDGSPCPSKSGLSYKSVISFVCRPEAGPTNRPMLISLDKQTCTLFFSWHTPLACEQAT
modifications: N-glycosylated with Man3GlcNAc2 (Drosophila cells)
notes: Homodimer, secreted from Drosophila D.Mel-2 cells; not shown: human IgG1 Fc domain, amplified from IMAGE clone 4851063 (ATCC-6878978)
RU response relative to 11-Fc at equal concentrations [1]: ~2 fold vs 11-Fc
molar affinity relative to 11-Fc [2]: ~2 fold vs 11-Fc

B2: IGF2R domain 11, wild type, expressed in Pichia pastoris with C-terminal His6 tag (receptor)
chain: NEHDDCQVTNPSTGHLFDLSSLSGRAGFTAAYSEKGLVYMSICGENENCPPGVGACFGQTRISVGKANKRLRYVDQVLQLVYKDGSPCPSKSGLSYKSVISFVCRPEAGPTNRPMLISLDKQTCTLFFSWHTPLACEQATHHHHHH
notes: Alpha-factor signal is cleaved during secretion; soluble 17 kDa protein; also called WT; wild type domain 11
Relative Affinity [3]: 1 fold vs wild type domain 11
Relative Affinity [4]: 1 fold vs wild type domain 11
Relative Affinity [5]: 1 fold vs wild type domain 11

B3: IGF2R domain 11 E1544K (enhanced mutant) (receptor)
chain: B2 chain with E34K
notes: Secreted from Pichia pastoris
Relative Affinity [3]: 6.12 fold vs wild type domain 11
Relative Affinity [4]: 6.12 fold vs wild type domain 11

Next, values leading:

relative affinity increase over wild type by ITC [6]: ~2 fold vs wild type domain 11
Relative Affinity [3]: 2.79 fold vs wild type domain 11
Relative Affinity [4]: 2.79 fold vs wild type domain 11
Relative Affinity [5]: 2.79 fold vs wild type domain 11
B4: IGF2R domain 11 E1544A (receptor)
chain: B2 chain with E34A
notes: Secreted from Pichia pastoris

binding result [7]: no binding (tested: 16384 nM)
B5: IGF2R domain 11 I1572A (null mutant) (receptor)
chain: B2 chain with I62A
notes: Secreted from Pichia pastoris

Relative Affinity [3]: 1.96 fold vs wild type domain 11
Relative Affinity [4]: 1.96 fold vs wild type domain 11
B6: IGF2R domain 11 E1544V (receptor)
chain: B2 chain with E34V
notes: Secreted from Pichia pastoris
